Test results: patent publication US20220154156A1, “PROTEINS AND METHODS FOR DISRUPTING BACTERIAL COMMUNICATION” (REGENTS OF THE UNIVERSITY OF MINNESOTA, priority 2019, published 2022)

What was measured:
[1] = tested on: corrosion tubercles on steel coupons; test: Dose-response of lactonase for inhibiting biocorrosion, 7 weeks
Protocol: Five treatments with lactonase enzyme and two controls of the steel coupons were investigated for enzyme activity and corrosion rate. Each treatment or control contained three replicate steel coupons. They were exposed in lake water in lab microcosm for a period of 7 weeks. Lactonase enzyme silica gel coated testing coupon are prepared as described before, except the coupons were dipped and dried twice and covered with 2 layers of the same coating to ensure the intactness of the coating. The enzyme concentrations used in this experiment were 100, 200, 500, 1000 μg/ml. Also 100 μg/ml equivalent activity lactonase raw extract was tested to compare the effectiveness of raw enzyme extract to the purified lactonase enzyme.
After 7 weeks of exposure, coupons were retrieved and analyzed. The coupons in each treatment was photographed by the end of the experiment. Biocorrosion was evaluated by quantities and coverage of corrosion tubercle. Surface roughness measurement were also made with procedure described above.

[2] = tested on: Clavibacter michiganensis subsp. Nebraskensis; test: Corn infection assay; format: in vivo; settings: lactonase spray
Protocol: FIG. 31 show control of plant infections by a single spraying of 1 mL of lactonase solution (10 mg/mL) on corn leaves. The Viking maize seed (40-30UP) were grown in Euro pot (diameter 8 inch) with sterilized soil mixture (50 standard soil/50 Germinating Mix) in a green house under diurnal conditions with 16 hours lights at 22° C. and 8 hours dark at 18° C. Plant leaves were infected with Clabibacter michiganensis subsp. nebraskensis by dipping the clipped leaf into cell suspension ([…]). Shown are duplicates plants for the control treatment (left) and lactonase treatment (right).
Moreover, we specifically established a corn infection assay using the pathogen Clavibacter michiganensis subsp. Nebraskensis.

soil bacterial community = test: Different lactonases on soil microbial community (Example 8); format: cell-based; settings: 7 days, vs inactive SsoPox 5A8
Protocol: Principal component analysis (PCA) based on deep bacterial 16S rDNA sequences (Illumina V4 region).
The same experiments as described above were performed on the same soil microbial community but with two different lactonases, GcL, and Ssopox W263I. These enzymes differ primarily by their substrate specificity. […] This is important because different bacteria use different AHLs to communicate. Indeed, The structure of AHLs vary a lot with respect to the length of N-acyl chains (from C4 to C18), the hydroxyl or oxo group of the acyl chain and the saturated or unsaturated state of the carbon chain^1. The hydrophobicity of AHLs relates to their passive diffusion through membranes. […] In fact, regulatory circuits may be interconnected, like in P. aeruginosa^6, and allow for compensatory responses: if the LasI/LasR system is inactivated, the RhlI/RhlR system can still control LasI/LasR-spectific functions^7.

[3] = tested on: complex soil microbial community; test: Biofilm quantification in flow-through recirculating bioreactor; format: cell-based; settings: over 21 days
Protocol: After overnight induction (18° C., 0.2% L-Arabinose, 200 RPM shaking), cells overexpressing proteins were centrifuged (4,400×g, 20 min, 4° C.) and re-suspended in 100 mM potassium phosphate buffer, pH 7, at a concentration of 0.4 g/mL wet weight (0.2 g/mL for the 1× lactonase beads). Gel beads (1 mm diameter) containing the lactonase/control bacteria cultures were made using a dripping method while gelation occurred, using a method similar to a previously used protocol^41 400 mg PEG (average molecular weight, 10,000 Da) was mixed with 4 mL acetic acid (0.01M) until the PEG dissolved. […]
The flow-through system used in this study consisted of three 3-liter tanks set up in parallel. […] Each tank contained three liters of 15× diluted LB media in water and a pre-broken 96-stripwell plate was submerged to the bottom (so that individual wells could be harvested for either biofilm quantification or DNA extraction). […]
Inside each of the tanks sat two submerged 96-stripwell plates. […] Individual wells were extracted in triplicate for crystal violet biofilm quantification (OD550 nm) using a similar protocol as previously described^13. […] To quantify biofilm, the remaining crystal violet stained to the wells was solubilized with 125 μL of 30% acetic acid and this solution was read on a spectrophotometer at 550 nm. […]

[4] = all concentrations 100-1000 μg/ml, 7 weeks, p<0.05

B1: SsoPox W263I: improved variant of the hyperthermostable lactonase SsoPox from Sulfolobus solfataricus, exhibiting higher catalytic rates (protein, UniProt Q97VT7 1-314, looked up, variant W263I)
Aryldialkylphosphatase: MRIPLVGKDSIESKDIGFTLIHEHLRVFSEAVRQQWPHLYNEDEEFRNAVNEVKRAMQFGVKTIVDPTVMGLGRDIRFMEKVVKATGINLVAGTGIYIYIDLPFYFLNRSIDEIADLFIHDIKEGIQGTLNKAGFVKIAADEPGITKDVEKVIRAAAIANKETKVPIITHSNAHNNTGLEQQRILTEEGVDPGKILIGHLGDTDNIDYIKKIADKGSFIGLDRYGLDLFLPVDKRNETTLRLIKDGYSDKIMISHDYCCTIDIGTAKPEYKPKLAPRWSITLIFEDTIPFLKRNGVNEEVIATIFKENPKKFFS
- reduction of number of corrosion tubercles [1, 4]: > 38%
- reduction of percent coverage of corrosion tubercles [1, 4]: > 41%
- reduction of surface roughness ([1]; all treatments): not statistically significant
- optimal concentration for coating application ([1]; highest reduction of corrosion tubercles): 200 µg/mL
- symptoms of infection in corn plants [2]: protected the plant from showing any symptoms of infection
- planktonic microbial community composition (soil bacterial community): induce differential planktonic microbial community biases
- reduction of biofilm formation [3]: 2 fold
